Reference: patent US8748104
Like-named read-outs stand apart in the source and are kept apart here.

What was measured:
skeletal Troponin I [1] = biological target: skeletal Troponin I (UniProt P48788); conditions: Luminex bead fluorescence assay, streptavidin-phycoerythrin detection; room temperature 1 h, PBS washes
skeletal Troponin I [2] = biological target: skeletal Troponin I (UniProt P48788); conditions: Luminex bead fluorescence assay, streptavidin-phycoerythrin detection; room temperature 1 h, PBS washes; remark: listed apart in the source

Sequence of UniProt P48788 (P48788 2-182): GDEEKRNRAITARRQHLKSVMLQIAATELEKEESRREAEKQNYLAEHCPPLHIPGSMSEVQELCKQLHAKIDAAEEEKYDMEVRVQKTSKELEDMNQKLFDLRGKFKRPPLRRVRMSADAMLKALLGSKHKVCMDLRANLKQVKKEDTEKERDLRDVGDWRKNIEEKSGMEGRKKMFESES

Sequence | Kd (skeletal Troponin I [1]) | Kd (skeletal Troponin I [2])
GGGATGGGGTGGGTGGCCAGCGATT [SEQ ID NO: 1 aptamer] | 37.7 nM | –
TTAGGGGTGGTGTGGTTGGCAATTC [SEQ ID NO: 2 aptamer] | – | 5 nM
